Reference: PMC8642297

Assays:
[1] = target: GluA2 (modified calcium-permeable rat GluA2flip subunit with Q586 at the Q/R-site, GluA2*) (rat); assay: cryo-EM structure
[2] = target: GluA2 (modified calcium-permeable rat GluA2flip subunit with Q586 at the Q/R-site, GluA2*) (rat); assay: cryo-EM structure; remark: listed apart in the source

| stoichiometry N [1] | stoichiometry N (γ5 per GluA2 tetramer) [2] | Molecule |
| --- | --- | --- |
| 4 | – | GluA2 (modified calcium-permeable rat GluA2flip subunit with Q586 at the Q/R-site, GluA2*) (receptor) |
| – | 2 | type II TARP γ5 (C-terminally truncated mouse subunit, Cacng5, residues Ser2-Glu207) (domain or fragment) SACGRKALTLLSSVFAVCGLGLLGIAVSTDYWLYLEEGIILPQNQSTEVKMSLHSGLWRVCFLAGEERGRCFTIEYVMPMNSQMTSESTVNVLKMIRSATPFPLVSLFFMFIGFILSNIGHIRPHRTILAFVSGIFFILSGLSLVVGLVLYISSINDEMLNRTKDAETYFNYKYGWSFAFAAISFLLTESAGVMSVYLFMKRYTAE |
